Measurements as given in patent US20040170969.

Tested on: recombinant MOB expressed as a GST-fusion protein

FLAG-Ndr (cells treated with okadaic acid), sequence (chain, as listed by the source): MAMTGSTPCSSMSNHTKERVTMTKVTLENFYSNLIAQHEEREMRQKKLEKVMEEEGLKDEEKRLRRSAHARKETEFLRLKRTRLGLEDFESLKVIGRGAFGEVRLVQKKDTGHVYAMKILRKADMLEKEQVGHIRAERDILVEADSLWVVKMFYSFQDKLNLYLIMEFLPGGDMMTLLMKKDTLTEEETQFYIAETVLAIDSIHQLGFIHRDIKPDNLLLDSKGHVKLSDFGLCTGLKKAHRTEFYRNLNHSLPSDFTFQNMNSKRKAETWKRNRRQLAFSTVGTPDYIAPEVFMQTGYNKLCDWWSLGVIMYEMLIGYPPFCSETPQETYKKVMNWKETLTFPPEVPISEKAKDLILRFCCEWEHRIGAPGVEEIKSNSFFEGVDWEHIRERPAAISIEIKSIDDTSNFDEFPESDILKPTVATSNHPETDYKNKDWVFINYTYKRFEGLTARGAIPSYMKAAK

## FLAG-Ndr (cells treated with okadaic acid)
  phosphorylation of GST-MOB by Ndr (FIG. 19): recombinant MOB expressed as a GST-fusion protein is specifically phosphorylated by active Ndr
